Assay results reported in patent US20200317768A1 (published 2020).
Where a chain is given by its changes, count along the chain named. Names may count otherwise.

T1: human FcγRIIaH extracellular domain, C-terminal His-tag (human, UniProt P12318 34-217)
T1 construct: also called human FcγRIIa (type H); FcgRIIaH; not shown: His-tag added to the C-terminus
T1 sequence: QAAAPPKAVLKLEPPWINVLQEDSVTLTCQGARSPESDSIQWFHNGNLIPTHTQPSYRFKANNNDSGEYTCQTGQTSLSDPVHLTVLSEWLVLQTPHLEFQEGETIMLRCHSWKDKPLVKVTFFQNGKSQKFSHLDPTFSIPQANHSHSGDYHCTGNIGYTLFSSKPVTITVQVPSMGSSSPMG

T2: human FcγRIIaR extracellular domain, C-terminal His-tag (human, UniProt P12318 34-217)
T2 construct: also called human FcγRIIa (type R); FcgRIIaR; not shown: His-tag added to the C-terminus
T2 chain: T1 sequence with H134R

T3: human FcγRIIb extracellular domain, C-terminal His-tag (human, UniProt P31994 43-217)
T3 construct: also called FcgRIIb; not shown: His-tag added to the C-terminus
T3 sequence: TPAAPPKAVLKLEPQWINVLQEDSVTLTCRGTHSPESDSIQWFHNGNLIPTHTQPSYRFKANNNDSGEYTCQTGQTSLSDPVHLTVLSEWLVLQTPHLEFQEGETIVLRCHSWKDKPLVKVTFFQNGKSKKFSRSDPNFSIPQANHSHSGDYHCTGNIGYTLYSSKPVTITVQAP

B1: MS103240H795-TT13/M103202L1045-SK1 (antibody, human IgG1, kappa)
heavy: QVQLVESGGGLVQPGGSLRLSCAVSGIDLSHDDISWVRQAPGKGLEWVSIISYAGSTYYASWAKGRLTISKDTSKNQVVLTMTNMDPVDTATYYCARGVPAYSHGGDLWGQGTLVTVSSASTKGPSVFPLAPSSKSTSGGTAALGCLVKDYFPEPVTVSWNSGALTSGVHTFPAVLQSSGLYSLSSVVTVPSSSLGTQTYICNVNHKPSNTKVDKKVEPKSCDKTHTCPPCPAPELLGGDSVFLFPPKPKDVLMISRTPEVTCVVIDVAHEDPEVKFNWYVDGVEVHNAKTKPREEQYNSTYRVVSVLPVLHQDWLNGKEYKCKVSNKALPKPIEKTISKAKGQPREPQVYTLPPSREEMTKNQVSLTCLVKGFYPSDIAVEWESNGQPENNYKTTPPVLDSDGSFFLYSKLTVDKSRWQQGNVFSCSVMHEALHNHYTQKSLSLSP
light: DIVMTQSPATLSLSPGERATLSCTTSQSVYHENWLSWFQQKPGQPPKLLIYWASTLAYGVPSRFSGSGSGTDFTLTISSLQPEDAATYYCAGGYGGGRYAFGQGTKVEIKRTVAAPSVFIFPPSDEQLKSGTASVVCLLNNFYPREAKVQWKVDNALQSGNSQESVTEQDSKDSTYSLSSTLTLSKADYEKHKVYACEVTHQGLSSPVTKSFNRGEC
notes: CH = SG1 with P238D/T250V/V264I/S267A/T307P/A330K (EU numbering)
B2: MS103240H795-TT25/M103202L1045-SK1 (antibody, human IgG1, kappa)
heavy: B1 heavy with I266V, Q313R, D415K
light: B1 light
notes: CH = SG1 with P238D/T250V/S267A/T307P/Q311R/A330K/D413K (EU numbering)
B3: MS103240H795-TT21/M103202L1045-SK1 (antibody, human IgG1, kappa)
heavy: B1 heavy with I266V, A269S, Q313R, D415K
light: B1 light
notes: CH = SG1 with P238D/T250V/T307P/Q311R/A330K/D413K (EU numbering)
B4: MS103240H795-TT31/M103202L1045-SK1 (antibody, human IgG1, kappa)
heavy: B1 heavy with Q313R, D415K
light: B1 light
notes: CH = SG1 with P238D/T250V/V264I/S267A/T307P/Q311R/A330K/D413K (EU numbering)
B5: MS103240H795-TT26/M103202L1045-SK1 (antibody, human IgG1, kappa)
heavy: B1 heavy with L236Y, I266V, A269S, Q313R, P345R
light: B1 light
notes: CH = SG1 with L234Y/P238D/T250V/T307P/Q311R/A330K/P343R (EU numbering)
B6: MS103240H795-TT14/M103202L1045-SK1 (antibody, human IgG1, kappa)
heavy: B1 heavy with L236Y, A269S
light: B1 light
notes: CH = SG1 with L234Y/P238D/T250V/V264I/T307P/A330K (EU numbering)
B7: MS103240H795-TT23/M103202L1045-SK1 (antibody, human IgG1, kappa)
heavy: B1 heavy with A269S, Q313R, D415K
light: B1 light
notes: CH = SG1 with P238D/T250V/V264I/T307P/Q311R/A330K/D413K (EU numbering)
B8: MS103240H795-TT24/M103202L1045-SK1 (antibody, human IgG1, kappa)
heavy: B1 heavy with I266V, Q313R, P345R
light: B1 light
notes: CH = SG1 with P238D/T250V/S267A/T307P/Q311R/A330K/P343R (EU numbering)
B9: MS103240H795-TT28/M103202L1045-SK1 (antibody, human IgG1, kappa)
heavy: B1 heavy with L236Y, I266V, Q313R, P345R
light: B1 light
notes: CH = SG1 with L234Y/P238D/T250V/S267A/T307P/Q311R/A330K/P343R (EU numbering)
B10: MS103240H795-TT30/M103202L1045-SK1 (antibody, human IgG1, kappa)
heavy: B1 heavy with Q313R, P345R
light: B1 light
notes: CH = SG1 with P238D/T250V/V264I/S267A/T307P/Q311R/A330K/P343R (EU numbering)
B11: MS103240H795-TT20/M103202L1045-SK1 (antibody, human IgG1, kappa)
heavy: B1 heavy with I266V, A269S, Q313R, P345R
light: B1 light
notes: CH = SG1 with P238D/T250V/T307P/Q311R/A330K/P343R (EU numbering)
B12: MS103240H795-TT22/M103202L1045-SK1 (antibody, human IgG1, kappa)
heavy: B1 heavy with A269S, Q313R, P345R
light: B1 light
notes: CH = SG1 with P238D/T250V/V264I/T307P/Q311R/A330K/P343R (EU numbering)
B13: MS103240H795-TT27/M103202L1045-SK1 (antibody, human IgG1, kappa)
heavy: B1 heavy with L236Y, I266V, A269S, Q313R, D415K
light: B1 light
notes: CH = SG1 with L234Y/P238D/T250V/T307P/Q311R/A330K/D413K (EU numbering)
B14: MS103240H795-TT15/M103202L1045-SK1 (antibody, human IgG1, kappa)
heavy: B1 heavy with L236Y
light: B1 light
notes: CH = SG1 with L234Y/P238D/T250V/V264I/S267A/T307P/A330K (EU numbering)
B15: MS103240H795-TT29/M103202L1045-SK1 (antibody, human IgG1, kappa)
heavy: B1 heavy with L236Y, I266V, Q313R, D415K
light: B1 light
notes: CH = SG1 with L234Y/P238D/T250V/S267A/T307P/Q311R/A330K/D413K (EU numbering)

target: T4, human FcγRIIIaV extracellular domain, C-terminal His-tag (human, UniProt P08637 17-208); test: SPR; KD of SG1 divided by KD of variant;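 also: relative to parent M103205H795-SG1 carrying the SG1 human heavy chain constant region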
T4 construct: also called FcgRIIIaV; not shown: His-tag added to the C-terminus
T4 sequence (P08637 17-208 F176V): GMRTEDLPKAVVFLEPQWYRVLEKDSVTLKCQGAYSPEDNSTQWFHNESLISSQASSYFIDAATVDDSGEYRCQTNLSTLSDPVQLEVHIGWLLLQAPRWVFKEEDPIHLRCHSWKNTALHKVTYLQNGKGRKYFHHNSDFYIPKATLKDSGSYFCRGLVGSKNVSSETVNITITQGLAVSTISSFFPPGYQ
Protocol: (§1) The kinetic analysis of interactions between these antibodies and FcγR was carried out using BIACORE® T200 or BIACORE® 4000 (GE Healthcare). HBS-EP+ (GE Healthcare) was used as the running buffer, and the measurement temperature was set to 25° C. A chip produced by immobilizing Protein A. Protein A/G or mouse anti-human IgG kappa light chain (BD Biosciences) onto a Series S Sensor Chip CM4 or CM5 (GE Healthcare) by the amine-coupling method was used. […] After the measurement, the antibody captured on the chip was washed off by allowing reaction with 10 mM glycine-HCl, pH1.5 and 25 mM NaOH so that the chip was regenerated and used repeatedly. The sensorgrams obtained as measurement results were analyzed by the 1:1 Langmuir binding model using the BIACORE® Evaluation Software to calculate the binding rate constant ka (L/mol/s) and dissociation rate constant kd (l/s), and the dissociation constant KD (mol/L) was calculated from these values. […] Regarding such interactions, KD values were calculated using the following 1:1 binding model described in BIACORE® T100 Software Handbook BR1006-48 Edition AE.
(§2) Human FcγRIIb-enhanced Fc variants with anti-myostatin variable region were constructed and their affinity for human FcγRs was evaluated. […] In addition, substitutions (Q311R/D413K or […]) were also introduced. The variants were expressed using M103202L1045-SK1 as light chain and their affinity to human FcγRs was analyzed according to the method shown in Example 34.

| KD fold (SG1 = 1) [fold] | Binder |
| --- | --- |
| 0.006 | B1 |
| 0.006 | B2 |
| 0.01 | B3 |
| 0.003 | B4 |
| 0.004 | B5 |
| 0.005 | B6 |
| 0.002 | B7 |
| 0.003 | B8 |
| 0.01 | B9 |
| 0.012 | B10 |
| 0.01 | B11 |
| 0.011 | B12 |
| 0.006 | B13 |
| 0.006 | B14 |
| 0.009 | B15 |

target: T1, human FcγRIIaH extracellular domain, …; test: SPR; KD of SG1 divided by KD of variant;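 also: relative to parent M103205H795-SG1 carrying the SG1 human heavy chain constant region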
Protocol: as §1, §2

| KD fold (SG1 = 1) [fold] | Binder |
| --- | --- |
| 0.017 | B1 |
| 0.034 | B2 |
| 0.013 | B3 |
| 0.007 | B4 |
| 0.011 | B5 |
| 0.042 | B6 |
| 0.007 | B7 |
| 0.015 | B8 |
| 0.016 | B9 |
| 0.005 | B10 |
| 0.008 | B11 |
| 0.013 | B12 |
| 0.014 | B13 |
| 0.026 | B14 |
| 0.02 | B15 |

Target: T2, human FcγRIIaR extracellular domain, …
Test: SPR; KD of SG1 divided by KD of variant;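 also: relative to parent M103205H795-SG1 carrying the SG1 human heavy chain constant region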
Protocol: as §1, §2

| KD fold (SG1 = 1) [fold] | Binder |
| --- | --- |
| 0.11 | B1 |
| 0.08 | B2 |
| 0.06 | B3 |
| 0.06 | B4 |
| 0.05 | B5 |
| 0.14 | B6 |
| 0.02 | B7 |
| 0.08 | B8 |
| 0.14 | B9 |
| 0.08 | B10 |
| 0.04 | B11 |
| 0.05 | B12 |
| 0.08 | B13 |
| 0.18 | B14 |
| 0.15 | B15 |

target: T3, human FcγRIIb extracellular domain, …; test: SPR; KD of SG1 divided by KD of variant;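 also: relative to parent M103205H795-SG1 carrying the SG1 human heavy chain constant region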
Protocol: as §1, §2

| KD fold (SG1 = 1) [fold] | Binder |
| --- | --- |
| 18.1 | B1 |
| 5.8 | B2 |
| 4.5 | B3 |
| 10.4 | B4 |
| 5.3 | B5 |
| 30.5 | B6 |
| 10.5 | B7 |
| 4.8 | B8 |
| 6.8 | B9 |
| 10.2 | B10 |
| 4.1 | B11 |
| 9.8 | B12 |
| 7.1 | B13 |
| 23.2 | B14 |
| 7.2 | B15 |

target: T4, human FcγRIIIaV extracellular domain, …; test: SPR (BIACORE), antibody captured, soluble FcgR as analyte, 25C
Protocol: as §1, §2

| Kd [µM] | Binder |
| --- | --- |
| 140 | B1 |
| 140 | B2 |
| 85 | B3 |
| 290 | B4 |
| 200 | B5 |
| 150 | B6 |
| 450 | B7 |
| 260 | B8 |
| 82 | B9 |
| 66 | B10 |
| 84 | B11 |
| 72 | B12 |
| 130 | B13 |
| 130 | B14 |
| 89 | B15 |

target: T1, human FcγRIIaH extracellular domain, …; test: as above
Protocol: as §1, §2

| Kd [µM] | Binder |
| --- | --- |
| 45 | B1 |
| 22 | B2 |
| 56 | B3 |
| 110 | B4 |
| 69 | B5 |
| 18 | B6 |
| 100 | B7 |
| 49 | B8 |
| 48 | B9 |
| 150 | B10 |
| 91 | B11 |
| 60 | B12 |
| 52 | B13 |
| 29 | B14 |
| 37 | B15 |

Target: T2, human FcγRIIaR extracellular domain, …
Test: as above
Protocol: as §1, §2

| Kd [µM] | Binder |
| --- | --- |
| 9.8 | B1 |
| 13 | B2 |
| 20 | B3 |
| 19 | B4 |
| 21 | B5 |
| 7.6 | B6 |
| 48 | B7 |
| 13 | B8 |
| 7.7 | B9 |
| 14 | B10 |
| 28 | B11 |
| 21 | B12 |
| 14 | B13 |
| 6.1 | B14 |
| 7.5 | B15 |

target: T3, human FcγRIIb extracellular domain, …; test: as above
Protocol: as §1, §2

| Kd [µM] | Binder |
| --- | --- |
| 0.32 | B1 |
| 1 | B2 |
| 1.3 | B3 |
| 0.56 | B4 |
| 1.1 | B5 |
| 0.19 | B6 |
| 0.55 | B7 |
| 1.2 | B8 |
| 0.85 | B9 |
| 0.57 | B10 |
| 1.4 | B11 |
| 0.59 | B12 |
| 0.82 | B13 |
| 0.25 | B14 |
| 0.81 | B15 |
